The results in this text go back to IntAct's records for PubMed 11356191.

In the assay the target is ptn13_human PTPN13 (UniProt Q12923).
Sequence of ptn13_human PTPN13 (Q12923 whole entry): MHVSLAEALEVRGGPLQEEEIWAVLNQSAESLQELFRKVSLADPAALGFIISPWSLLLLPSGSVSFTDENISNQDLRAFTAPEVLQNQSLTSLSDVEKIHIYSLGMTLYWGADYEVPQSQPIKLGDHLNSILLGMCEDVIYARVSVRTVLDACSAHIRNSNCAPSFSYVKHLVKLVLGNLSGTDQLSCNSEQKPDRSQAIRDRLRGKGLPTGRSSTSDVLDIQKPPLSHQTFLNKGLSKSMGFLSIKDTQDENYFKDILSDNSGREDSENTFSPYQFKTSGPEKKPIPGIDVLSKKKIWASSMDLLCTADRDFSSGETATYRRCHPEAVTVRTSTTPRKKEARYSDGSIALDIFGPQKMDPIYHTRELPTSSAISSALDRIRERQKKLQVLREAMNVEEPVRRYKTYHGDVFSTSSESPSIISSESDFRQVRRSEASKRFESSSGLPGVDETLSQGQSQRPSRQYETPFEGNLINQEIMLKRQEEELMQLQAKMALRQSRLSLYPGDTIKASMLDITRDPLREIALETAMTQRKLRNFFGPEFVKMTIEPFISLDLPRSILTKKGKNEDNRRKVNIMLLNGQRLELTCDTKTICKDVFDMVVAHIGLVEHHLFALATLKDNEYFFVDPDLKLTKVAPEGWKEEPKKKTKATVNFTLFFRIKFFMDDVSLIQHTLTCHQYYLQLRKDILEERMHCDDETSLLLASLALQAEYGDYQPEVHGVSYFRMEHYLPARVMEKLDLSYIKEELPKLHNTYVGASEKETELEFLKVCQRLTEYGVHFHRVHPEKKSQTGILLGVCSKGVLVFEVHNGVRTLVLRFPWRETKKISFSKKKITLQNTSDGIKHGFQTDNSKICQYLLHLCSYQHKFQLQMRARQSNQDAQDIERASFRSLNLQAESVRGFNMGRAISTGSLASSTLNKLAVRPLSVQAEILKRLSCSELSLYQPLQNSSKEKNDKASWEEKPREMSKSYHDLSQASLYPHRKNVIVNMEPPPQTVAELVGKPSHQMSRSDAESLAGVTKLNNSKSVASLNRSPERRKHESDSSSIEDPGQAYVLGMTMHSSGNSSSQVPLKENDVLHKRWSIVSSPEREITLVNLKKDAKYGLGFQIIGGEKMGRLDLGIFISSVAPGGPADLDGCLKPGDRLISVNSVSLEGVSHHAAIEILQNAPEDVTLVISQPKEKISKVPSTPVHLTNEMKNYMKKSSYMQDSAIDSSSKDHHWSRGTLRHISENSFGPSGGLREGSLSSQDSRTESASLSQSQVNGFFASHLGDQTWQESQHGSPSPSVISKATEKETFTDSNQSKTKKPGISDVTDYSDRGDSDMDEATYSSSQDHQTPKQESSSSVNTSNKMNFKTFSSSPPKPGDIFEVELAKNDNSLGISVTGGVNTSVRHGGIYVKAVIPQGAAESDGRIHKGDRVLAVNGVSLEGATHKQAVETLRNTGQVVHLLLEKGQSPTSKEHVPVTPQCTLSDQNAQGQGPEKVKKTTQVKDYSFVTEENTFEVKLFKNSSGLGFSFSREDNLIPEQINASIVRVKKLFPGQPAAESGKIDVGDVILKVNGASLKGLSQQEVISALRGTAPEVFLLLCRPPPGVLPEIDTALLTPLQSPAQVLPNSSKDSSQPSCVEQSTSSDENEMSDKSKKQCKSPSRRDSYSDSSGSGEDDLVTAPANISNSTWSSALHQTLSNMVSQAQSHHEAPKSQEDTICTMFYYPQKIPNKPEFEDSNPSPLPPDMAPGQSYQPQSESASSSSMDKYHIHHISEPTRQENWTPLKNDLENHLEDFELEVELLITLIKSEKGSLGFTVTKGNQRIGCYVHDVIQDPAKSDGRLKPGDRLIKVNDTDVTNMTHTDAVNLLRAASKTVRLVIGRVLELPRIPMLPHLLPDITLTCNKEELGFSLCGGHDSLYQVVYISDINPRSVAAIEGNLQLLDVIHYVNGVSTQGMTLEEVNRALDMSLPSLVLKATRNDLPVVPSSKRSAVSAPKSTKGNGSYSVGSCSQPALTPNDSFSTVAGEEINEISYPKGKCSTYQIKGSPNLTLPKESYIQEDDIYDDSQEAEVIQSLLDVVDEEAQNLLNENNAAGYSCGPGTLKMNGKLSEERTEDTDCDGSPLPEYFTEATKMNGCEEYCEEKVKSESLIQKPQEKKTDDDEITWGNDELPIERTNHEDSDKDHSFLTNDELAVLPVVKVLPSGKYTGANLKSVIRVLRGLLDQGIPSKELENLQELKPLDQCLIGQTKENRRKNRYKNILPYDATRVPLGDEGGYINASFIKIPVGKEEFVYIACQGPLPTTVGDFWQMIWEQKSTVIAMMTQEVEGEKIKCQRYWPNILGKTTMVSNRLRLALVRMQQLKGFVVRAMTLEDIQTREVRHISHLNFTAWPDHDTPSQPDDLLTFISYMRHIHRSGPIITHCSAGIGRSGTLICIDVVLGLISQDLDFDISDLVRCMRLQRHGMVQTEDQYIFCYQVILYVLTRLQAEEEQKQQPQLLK

For “Serine/threonine-protein kinase N2 (Homo sapiens), Q16513 C984S”, the “effect of a mutation on the interaction” value was “disrupting interaction”.
